{"source": "paper PMC7870846", "about": "“Incorporation of sensing modalities into de novo designed fluorescence-activating proteins” (Nature Communications, 2021)", "key": {"[1]": {"test": "Ca2+-responsive mFAP Ca2+ titrations", "format": "binding", "conditions": "in the presence of excess DFHBI", "protocol": "In measuring Ca^2+ affinity of mFAPs on a Synergy Neo2 hybrid multi-mode reader (Fig. 4d, e, f and Supplementary Figs. 10c, f, i, 11c, f, i, 13c, f, i, 16b), large-scale purified proteins[49] were aliquoted in technical triplicate to a final concentration of 500 nM with 5.00 μM DFHBI in eleven serial dilutions ( 10 dilution factor) of CaCl2 (Sigma Aldrich) starting from either 900 mM or 90.0 mM CaCl2 (diluted using high-salt Tev cleavage buffer) including a twelfth condition without CaCl2. Final volumes were 200 μL in flat bottom, black polystyrene, non-binding surface 96-well microplates (Corning 3650). Fluorescence endpoints were measured using excitation wavelength λex = 484 nm and emission wavelength λem = 508 nm. Background fluorescence endpoints of wells with identical chromophore and CaCl2 concentrations lacking protein (substituted for equivalent volumes of high-salt Tev cleavage buffer) were measured in technical triplicate, averaged per condition, and subtracted from protein measurement averages of the same conditions.\nFor Ca^2+ titrations of EF4n_mFAP2a and EF4n_mFAP2b (Supplementary Fig. 13c), a small amount of Chelex 100 sodium form (Sigma Aldrich) was added to purified protein (produced by large-scale protein purification and SEC purification[49]) and nutated at 4 °C overnight. EF4n_mFAP2a was aliquoted in technical triplicate to a final concentration of 8.00 μM with 80.0 μM DFHBI and EF4n_mFAP2b was aliquoted in technical triplicate to a final concentration of 6.25 μM with 43.4 μM DFHBI, in eleven serial dilutions ( 10 dilution factor) of CaCl2 starting from 9.00 mM or 4.00 mM CaCl2 (diluted using high-salt Tev cleavage buffer pre-treated with Chelex 100) including a twelfth condition without CaCl2. Final volumes were 25.0 μL in flat bottom, black polystyrene, non-binding surface 96-well half-area microplates (Corning 3686) or 200 μL in flat bottom, black polystyrene, non-binding surface 96-well microplates (Corning 3650). Fluorescence endpoints were measured for EF4n_mFAP2a using excitation wavelength λex = 478 nm and emission wavelength λem = 520 nm, and for EF4n_mFAP2b using excitation wavelength λex = 484 nm and emission wavelength λem = 508 nm. Background fluorescence endpoints of wells with identical chromophore and CaCl2 concentrations lacking protein (substituted for equivalent volumes of high-salt Tev cleavage buffer) were measured in technical triplicate, averaged per condition, and subtracted from protein measurement averages of the same conditions. For non-linear least squares fitting to obtain Kd values, means were fit to a single-binding site isotherm function where Ca^2+-binding sites were modeled independently with a Hill coefficient of 1."}, "[2]": {"test": "Ca2+-responsive mFAP DFHBI titrations", "format": "binding", "conditions": "in the presence of excess Ca2+ (Kd+)", "protocol": "Final volumes were 25.0 μL in flat bottom, black polystyrene, non-binding surface 96-well half-area microplates (Corning 3686) or 200 μL in flat bottom, black polystyrene, non-binding surface 96-well microplates (Corning 3650). Fluorescence endpoints were measured using excitation wavelength λex = 488 nm and emission wavelength λem = 510 nm. Background fluorescence endpoints of wells with identical chromophore concentrations lacking protein (substituted for equivalent volumes of high-salt Tev cleavage buffer) were measured and subtracted from protein measurements prior to normalization.\nFor DFHBI titrations of EF4n_mFAP2a and EF4n_mFAP2b (Supplementary Fig. 13a, b), a small amount of Chelex 100 sodium form (Sigma Aldrich) was added to purified protein (produced by large-scale protein purification and SEC purification[49]) and nutated at 4 °C overnight. […] Fluorescence endpoints were measured using excitation wavelength λex = 488 nm and emission wavelength λem = 510 nm for EF4n_mFAP2b, and excitation wavelength λex = 478 nm and emission wavelength λem = 520 nm for EF4n_mFAP2a. Background fluorescence endpoints of wells with identical chromophore concentrations lacking protein (substituted for equivalent volumes of Chelex 100 pre-treated high-salt Tev cleavage buffer) were measured and subtracted from protein measurements prior to normalization."}, "HEK293 cells": {"test_system": "HEK293 cells", "test": "HEK293 cell surface-displayed Ca2+ titrations", "format": "cell-based", "conditions": "Ca2+ from 0 to 10 mM; 7.00 µM DFHBI; extracellular display", "protocol": "Plasmid DNAs (Supplementary Data 15 and Supplementary Data 17) were purified in ddH2O for transfections. pGP-CMV-GCaMP6f was a gift from Douglas Kim & GENIE Project (Addgene plasmid #40755; [http://n2t.net/addgene:40755]; RRID: Addgene_40755). Wild-type HEK293 cells (ATCC CRL-1573) were cultured on 24-well plates in DMEM media (4.5 g L^−1 D-glucose, L-glutamine; ThermoFisher #11965-092) supplemented with 10% FBS and 1% Penicillin/Streptomycin in a 5% CO2 atmosphere at 37 °C. Cells were seeded into 24-well plates (ThermoFisher #FB012929) at 100,000 cells well^−1. Twenty-four hours after seeding, cell media was aspirated and replaced with 200 μL of DMEM media. […]\nData analysis: Regions of interest (ROIs) surrounding single cells from three technical replicates were hand-drawn in ImageJ software. For each cellular ROI in each frame the average fluorescence was calculated in ImageJ. In order to perform background subtraction, cellular ROIs were then moved proximal to the original cell to an ROI where there was no fluorescence. Each cellular ROIs average fluorescence had the average background intensity subtracted for each frame. […]"}}, "data": [{"molecule": "EF1p2_mFAP2b (K101A): K101A lysine-to-alanine substitution in EF1p2_mFAP2b (protein) SRAAQLLPGTWQVTMTNEDGQTSQGQWHFQPRSPYTMDIVAQGTISDGRPIVGYGKATVKTPDTLDIDITYPSLGNIKAQGQITMDSPTQFKWDAHYKGDADGDGYISAAEAAAQGLTGTLQRQE", "values": [{"measurement": "reduction of Ca2+ affinity compared with EF1p2_mFAP2b", "setting": "[1]", "value": "~ 29 fold"}, {"measurement": "reduction of DFHBI affinity compared with EF1p2_mFAP2b", "setting": "[2]", "value": "~ 21 fold"}]}, {"molecule": "EF1p_mFAP2b: positively allosteric Ca2+-responsive mFAP, one EF-hand motif (protein) SRAAQLLPGTWQVTMTNEDGQTSQGQWHFQPRSPYTMDIVAQGTISDGRPIVGYGKATVKTPDTLDIDITYPSLGNIKAQGQITMDSPTQFKWDAHYKGDKDGDGYISAAEAAAQILTGTLQRQE", "values": [{"measurement": "fluorescence fold-change (ΔF/F0)", "setting": "HEK293 cells", "value": "~ 0.5"}]}]}
